Substitutions are numbered along the chain they refer to.
T1: Ovalbumin (UniProt P01012 2-386)
T1 sequence: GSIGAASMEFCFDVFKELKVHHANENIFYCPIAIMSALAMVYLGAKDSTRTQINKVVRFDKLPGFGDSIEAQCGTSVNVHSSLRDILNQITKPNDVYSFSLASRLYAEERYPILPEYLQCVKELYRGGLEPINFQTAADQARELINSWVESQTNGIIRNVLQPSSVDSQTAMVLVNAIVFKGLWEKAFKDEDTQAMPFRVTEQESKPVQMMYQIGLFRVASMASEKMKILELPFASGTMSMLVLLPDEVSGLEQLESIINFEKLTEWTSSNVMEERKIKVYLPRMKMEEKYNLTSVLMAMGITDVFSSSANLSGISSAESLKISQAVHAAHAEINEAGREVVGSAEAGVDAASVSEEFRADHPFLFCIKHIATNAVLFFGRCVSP

B1: g060b10 (Fab, V domains shown)
VH: KVQLVESGAEVKKPGATVRVSCKASGYRFNDYCISWVRQAPGQGLEWMGWINGNNADTFYAPKLQGRVTMSTDTSTSTAYMELRNLRSDDTAVYFCARDRGRITLFGEVILRAGWFDSWGQGTLVTVS
VL: EIVMTQSPSSLSASVGDRVTITCQASQDISKYLNWYQQKPGRAPKLLIYEASNLETGVPPRFSGSGSGTHFTFTITGLQPEDIATYYCQQCDSLPPVFGQGTKLEVK
B2: g060h11 (Fab, V domains shown)
VH: QVTLKESGPTVVKPTQTLTLTCSLSGFALGTTGVAVGWIRQPPGKALEWLGLIDWNDDRRYRPSLKTRLTITQDMSRNQVVLRLTNLDPLDTGTYFCARSVVPATRAFDFWGQGTLVTVS
VL: DIQMTQSSSTLSASVGDRVTITCRASQNINIWLAWYQQKAGKAPKLLIYKASTLERGVPSRFSGSGSGTEFTLTITGLRPDDFGSYYCQHYDGNSLTFGQGTRVDIQ
B3: g060g07 (Fab, V domains shown)
VH: QVQLQQSGPGLVKPSETLPLTCTVSGGSFSTYYWSWIRQSPEKGLEWIGYIQNSVNTNYNPSLKSRVIISVDTSNNQFSLKLRSVTAADTAVYYCARVSGWGPRGGIYFDYWGQGTLVTVS
VL: DIQMTQSPSSLSASVSDRVTITCRASQSINKFLNWYQQKPGKAPQLLIYAATNLQSGVPSRFSGSGSGTDFTLTISSLQTEDFATYYCQQSYDMPRTFGQGTKVEIK
B4: g060b06 (Fab, V domains shown)
VH: QVQLQESGGGVVQPGTSLRLSCVVSGFTFRTYGMNWVRQAPGKVLEWLAFVSSDGSDEFYADSVKGRFTVSRDNSKSTLFLKMNSLRADDTAVYYCARDRGAQITLFGAPLIRPSSFDSWGQGTLVTVS
VL: EIVLTQSPSSLSASVGDRITITCQASQDITNYLNWYQQKPGKAPKLLIYDASNLQPGVPSRFSGSRSGTDFTFTISSLRPEDIATYYCQQYDGPVLTFGGGTKVEIK
B5: g060a04 (Fab, V domains shown)
VH: B4 VH with Q1K, Q5V, V44G, V51L, A88P
VL: B4 VL with E1D, I2V, L4M, I19V, R66G, G68V

The binders below were run against T1, Ovalbumin (assay: ELISA, periplasmic extract on coated Ovalbumin).

Q: Does B1 bind?
A: no binding (tested: 10 µg/ml Ovalbumin coat)

Q: Does B2 bind?
A: no binding (tested: 10 µg/ml Ovalbumin coat)

Q: Does B3 bind?
A: no binding (tested: 10 µg/ml Ovalbumin coat)

Q: Does B4 bind?
A: no binding (tested: 10 µg/ml Ovalbumin coat)

Q: Does B5 bind?
A: no binding (tested: 10 µg/ml Ovalbumin coat)
